# Assay results published in PMC10042821, “Cryo-EM structure of human eIF5A-DHS complex reveals the molecular basis of hypusination-associated neurodegenerative disorders” (Nature Communications, 2023).
# Numbering of substitutions follows the chain as printed.
# T1: deoxyhypusine synthase D243A, His-tagged (human, UniProt P49366 1-369, D243A)
# T1 construct: deoxyhypusine synthase (DHS), Homo sapiens, UniProt P49366, residues 1-369; source: E. coli, purified; His-tagged protein labelled with RED-tris-NTA for MST; not shown: His6, N-terminal, kept
# T1 sequence (looked up): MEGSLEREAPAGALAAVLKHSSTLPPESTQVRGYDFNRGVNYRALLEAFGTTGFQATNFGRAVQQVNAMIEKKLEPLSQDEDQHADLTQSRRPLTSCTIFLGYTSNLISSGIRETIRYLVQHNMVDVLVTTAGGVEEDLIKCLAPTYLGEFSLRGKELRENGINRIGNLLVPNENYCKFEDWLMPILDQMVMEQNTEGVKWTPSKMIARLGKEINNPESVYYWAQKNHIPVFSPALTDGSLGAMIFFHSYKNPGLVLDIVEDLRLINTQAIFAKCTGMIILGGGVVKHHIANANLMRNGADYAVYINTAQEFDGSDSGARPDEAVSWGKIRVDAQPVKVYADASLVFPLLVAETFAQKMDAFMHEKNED
# T2: deoxyhypusine synthase H288A, His-tagged (human, UniProt P49366 1-369, H288A)
# T2 construct: deoxyhypusine synthase (DHS), Homo sapiens, UniProt P49366, residues 1-369; source: E. coli, purified; His-tagged protein labelled with RED-tris-NTA for MST; not shown: His6, N-terminal, kept
# T2 sequence (looked up): T1 sequence (looked up) with A243D, H288A
# T3: deoxyhypusine synthase, wild type, His-tagged (human, UniProt P49366 1-369)
# T3 construct: deoxyhypusine synthase (DHS), Homo sapiens, UniProt P49366, residues 1-369; N-terminal 6xHis-tag followed by a TEV site (pET24d); tag kept for the His-tag labelling in MST; also called DHS; DHS^wt; source: E. coli, purified; His-tagged protein labelled with RED-tris-NTA for MST; not shown: His6, N-terminal, kept
# T3 sequence (looked up): T1 sequence (looked up) with A243D
# B1: eukaryotic translation factor 5A-1 (eIF5A-1), residues 15-151 (domain or fragment)
# chain: not shown
# notes: eIF5A1 (eukaryotic translation factor 5A-1), human, residues 15-151, from pET28-MHL (Addgene); The general purification removes the His tag with TEV; A His-tagged eIF5A1 was used only in the hypusination assay; source: E. coli, purified (HisTrap, TEV cleavage, reverse HisTrap, SEC); not shown: His tag, N-terminal, cleaved
# How the values were obtained:
# Assay in all cases: MST; Monolith NT.115; 8.32 nM His-tagged DHS labelled with RED-tris-NTA, eIF5A titrated 0.00175-57.5 uM; 50 mM Tris, 200 mM NaCl, 5 mM beta-ME pH 8; free buffer
# Conditions in all cases: both partners purified
# [1] = target: T1, deoxyhypusine synthase D243A, His-tagged
# [2] = target: T2, deoxyhypusine synthase H288A, His-tagged
# [3] = target: T3, deoxyhypusine synthase, wild type, …
binder,measurement,setting,value
B1,Kd,[1],511 ± 182 nM
same,Kd,[2],49.7 ± 28.7 nM
same,Kd,[3],33.8 ± 8.5 nM
